# Experimental data published in patent US10335470B2, “Immunogenic compositions comprising progastrin and uses thereof” (Board of Regents, The University of Texas System, priority 2006, dated 2019).
# B1: PG: full-length recombinant human progastrin PG1-80, 80 amino acids (SEQ ID NO:3), generated in E. coli (protein)
# chain: SWKPRSQQPDAPLGTGANRDLELPWLEQQGPASHHRRQLGPQGPPHLVADPSKKQGPWLEEEEEAYGWMDFGRRSAEDEN
# modifications: sequence of progastrin peptide expressed by recombinant expression vector
# B2: rhPG fusion protein (FP): full length human progastrin protein fused with carrier protein thioredoxin (from bacteria), expressed in E. coli, used as immunogen (protein)
# chain: B1 chain
# modifications: left off: large carriers; small tags and cut ends
# notes: full length human progastrin protein fused with carrier protein thioredoxin (from bacteria), expressed in E. coli, used as immunogen
# Legend:
# [1] = biological target: T1, specific binding sites for rhPG (Annexin II) (Rattus norvegicus, UniProt Q07936); experiment: Displacement of 125I-rhPG binding to AR42J and IEC cells; details: 1.0 nM 125I-rhPG
# T1 construct: endogenous in cells; host or cells: AR42J cells; IEC cells
# Method: FIGS. 8A-8C show binding of ^125I-rhPG and ^125I-BH-CCK8 to a pancreatic cancer cell line, AR42J and intestinal epithelial cells (IEC). […] The relative binding affinity of the gastrin like peptides for the specific binding sites for rhPG (FIGS. 8A and B) (Annexin II) and CCK8 (FIG. 8C) to CCK2R was calculated. Data in each point represents the mean values of triplicate measurements from a single experiment and is representative of 2 similar experiments. The intra-experimental variation for each data point was <5-10%. The nM concentration of each peptide used is presented in a log-scale on the x-axis; the excess unlabeled peptide used for displacing the binding of the radio labeled ligand is presented in parentheses. The % loss in the relative binding of the radio labeled ligand in the presence of the increasing concentrations of the indicated non-labeled peptide is presented on the y-axis. IEC cells lack CCK2R binding sites and therefore binding with radio-labeled CCK8 was not examined with these cells.
# The full-length recombinant human PG1-80 (rhPG) was generated in an E. coli expression system and purified and confirmed as described previously (Singh et al, 2003). rhPG was radio labeled with Na ^125I (Amersham, Chicago, Ill.), and the intact ^125I-rhPG purified by HPLC as described previously (Singh et al, 2003). For these experiments, AR42J cells were expanded in vitro in […] and grown to subconfluence in the growth medium containing 10% FCS. […] The binding data was analyzed by a Scatchard plot as described previously (Singh et al, 1995). […]
# In order to define the RBA of various peptides for the PG binding sites on the cells, cells in suspension were incubated with 1.0 nM ^125I-rhPG in the presence or absence of increasing concentrations (0.1 nM-10.0 μM) of either the homologous or heterologous peptide. Non-specific binding was determined in the presence of 1000× excess of the non-labeled homologous peptide. […] Cell pellets were counted for ^125I in a gamma counter with ˜70% efficiency for ^125I. […]
# [2] = test system: aberrant crypt foci in PS21 (Fabp-PG) mice; experiment: Aberrant crypt foci in response to AOM in immunized PS21 Fabp-PG transgenic mice; format: in vivo, mouse; details: immunized PS21 mice vs wild type mice
# Method: Aberrant crypt forci (ACFs) are pre-neoplastic markers of colon carcinogenesis and represent dysplastic growth of colonic crypts, which is the earliest stage of pre-cancerous changes in the colonic mucosa as described in detail previously (Singh et al, 2000b). […] These mice were immunized with either thioredoxin, or the progastrin peptide alone or the fusion protein (FP) which contained thioredoxin and progastrin.
# All injections were administered subcutaneously. […] The ACFs were then counted.
# thioredoxin = details: all mouse groups (WT and PS21)
# Excerpt: Briefly, transgenic mice expressing human progastrin (PS21) and wild type mice were divided into 3 groups and immunized with (a) recombinant thioredoxin, (b) a recombinant fusion protein where human progastrin was fused with thioredoxin and recombinant progastrin, all proteins were expressed in E. coli and purified from cell extract. Each protein was emulsified using CFA/IFA (Sigma) as an adjuvant. The mice that received vaccine emulsified using CFA on day 1 followed by two subsequent immunization using IFA on day 21 and day 42. All injections were administered subcutaneously. Mice were bled and serum prepared to estimate the titers once a week for 3 weeks, 15 days after the final immunization.
# The antibody tires in serum were determined by solid phase ELISA using limiting dilution method. Briefly, 96 wells PVC ELISA plates (Falcon) were coated with 3 different recombinant protein expressed in E. coli that were used to vaccinate mice i.e. recombinant thioredoxin, Thioredoxin-PG fusion protein and recombinant PG. Recombinant proteins were dissolved in carbonate buffer pH 9.0 and coated at a concentration of 50 μg/50 μl/well. The plates were incubated overnight at 4° C. Following day the plates were flipped and the well were blocked with 100 μl 2% non fat dry milk (NFDM) and plated were incubated at 37° C. for 3-4 hours. […] The ELISA plated were them read in plate reader at 490 nm.
# progastrin = experiment: Anti-progastrin antibody titers in immunized mice (solid phase ELISA); format: in vivo, mouse; details: for anti-PG-antibody titers: PS21 transgenic and WT mice, CFA/IFA, s.c. day 1, 21, 42
# [3] = test system: intestinal epithelial cells (IEC), colon cancer cells and pancreatic cancer cells; details: cited from earlier work
# CCK2R = biological target: T2, CCK2R (Rattus norvegicus, UniProt P30553); experiment: Displacement of 125I-BH-CCK8 binding to AR42J cells
# T2 construct: endogenous in cells; host or cells: AR42J cells
# T2 sequence (P30553 1-452): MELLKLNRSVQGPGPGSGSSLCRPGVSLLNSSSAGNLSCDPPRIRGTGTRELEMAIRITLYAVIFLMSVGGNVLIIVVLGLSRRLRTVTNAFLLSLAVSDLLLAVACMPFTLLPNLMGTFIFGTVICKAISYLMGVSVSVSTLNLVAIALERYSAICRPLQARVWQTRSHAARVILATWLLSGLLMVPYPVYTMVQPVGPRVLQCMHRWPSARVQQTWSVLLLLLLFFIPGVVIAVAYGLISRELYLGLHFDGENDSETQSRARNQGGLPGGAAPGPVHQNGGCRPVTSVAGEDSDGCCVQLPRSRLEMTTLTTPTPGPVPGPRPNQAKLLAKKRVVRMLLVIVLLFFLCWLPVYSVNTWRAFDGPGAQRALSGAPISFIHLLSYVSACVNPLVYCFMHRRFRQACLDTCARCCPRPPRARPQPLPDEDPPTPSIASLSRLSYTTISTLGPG
# Method: Cells were incubated with the indicated radio labeled ligand in the presence or absence of increasing concentrations of either CCK8, G17 or rhPG. The relative binding affinity of the gastrin like peptides for the specific binding sites for rhPG (FIGS. 8A and B) (Annexin II) and CCK8 (FIG. 8C) to CCK2R was calculated.
# In a few experiments, ^125I-Bolton Hunter-CCK-8 (Amersham Biosciences, Piscataway, N.J.) was used as the radiolabeled ligand and the RBA of gastrin like peptides for displacing the binding of ^125I-BH-CCK8 to AR42J cells examined by our published methods (Singh et al, 1995).
# [4] = test system: colon tumors in FVB/N mice; experiment: AOM-induced colon carcinogenesis in immunized FVB/N mice; format: in vivo, mouse; details: 6 months after AOM, vs adjuvant alone
# Excerpt: (§1) FIGS. 6A-6C show immune response induced by hPG-fusion protein (FP) immunogen in different mouse models. […] The immunized Balb/c mice were inoculated with mouse CA cells at week 10 and sacrificed at week 14 and the tumors in the mice were weighed. Control mice received adjuvant alone. The weight of the tumors is indicated by an arrow against Ab titer of each mouse in mgs. Tumor weights from 3 of 6 animals are presented. […] FIGS. 6B and 6C show effect of vaccination with rhPG-FP immunogen on colon carcinogenesis in FVB/N mice. FVB/N mice were immunized with the hPG-fusion protein (FP) immunogen by 3-4 weekly injections and the PG-Ab titers were measured as described for the Balb/c mice. Once the mice developed significant PG-Ab titers, the mice were treated with azoxymethane (AOM) and the total number and size of tumors measured after 6 months of AOM treatment. The number of tumors (FIG. 6B) and the tumor burden (FIG. 6C) is presented herein. *=p<0.05 vs control values. Control mice were immunized with adjuvant alone.
# (§2) Since autocrine and endocrine PG might be playing an important role in colon carcinogenesis, the possibility of using an rhPG fusion protein as an immunogen for treatment purposes was examined. Briefly, the rhPG fusion protein (FP) was used as an immunogen in Balb/C, FVB/N and FABP-PG mice. […]
# [5] = test system: mouse colon cancer (CA) cells; experiment: Growth of mouse colon cancer (CA) cells in immunized Balb/c mice; format: in vivo; details: CA cells inoculated at week 10, sacrificed week 14, control adjuvant alone, listed as hPG-immunogen
# Excerpt: as §1, §2
# T1 sequence (Q07936 2-339 limits assumed): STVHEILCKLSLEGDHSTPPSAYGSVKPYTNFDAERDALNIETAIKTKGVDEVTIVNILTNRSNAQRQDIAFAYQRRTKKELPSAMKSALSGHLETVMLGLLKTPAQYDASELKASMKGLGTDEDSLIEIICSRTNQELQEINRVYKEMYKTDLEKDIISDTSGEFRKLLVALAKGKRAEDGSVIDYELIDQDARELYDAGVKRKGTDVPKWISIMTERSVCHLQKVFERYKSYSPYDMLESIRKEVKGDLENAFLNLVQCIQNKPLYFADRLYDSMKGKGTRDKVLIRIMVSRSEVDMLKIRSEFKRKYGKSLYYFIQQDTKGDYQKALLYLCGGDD
# Chain of thioredoxin (P0AA25 whole entry): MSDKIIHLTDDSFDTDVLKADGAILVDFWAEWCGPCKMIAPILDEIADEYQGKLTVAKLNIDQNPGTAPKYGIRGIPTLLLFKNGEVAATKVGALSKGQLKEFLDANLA
molecule,measurement,setting,value
G17: 17 amino acid C-terminally amidated gastrin peptide,displacement of binding of radio-labeled rhPG / binding affinity for PG binding sites,[1],negligible binding affinity
"thioredoxin: recombinant bacterial thioredoxin carrier protein expressed in E. coli, used alone as immunogen [reference compound]",development of ACF in response to AOM,[2],significantly enhanced
same,anti-thioredoxin-antibody titers,thioredoxin,significant titers
same,anti-PG-antibody titers,progastrin,not effective at all
"CCK: cholecystokinin (CCK-8), amidated peptide closely related to gastrin",displacement of binding of radio-labeled rhPG / binding affinity for PG binding sites,[1],negligible binding affinity
B1,development of ACF in response to AOM,[2],significantly enhanced
same,growth factor-like effects on cells,[3],potent growth factor-like effects
same,anti-PG-antibody titers,progastrin,much less effective
same,anti-PG-antibody titers,progastrin; listed as PG peptide,much lower levels
same,displacement of binding of radio-labeled rhPG / binding affinity for PG binding sites,[1],dose-dependently displaced
same,displacement of binding of 125I-BH-CCK8 to CCK2R,CCK2R,largely ineffective
B2,development of ACF in response to AOM,[2],complete attenuation
same,titers of specific anti-hPG-Abs,"progastrin; Balb/C, FVB/N and FABP-PG mice, within 4-8 weeks of vaccination",very high titers
same,"generation of PG antibodies, FP vs PG alone",progastrin; PS21 mice,2 fold
same,anti-PG-antibody titers,progastrin,2 fold to much higher titers
same,anti-PG-antibody titers,progastrin; listed as progastrin fusion protein,strong response
same,total number of tumors,[4],significantly (p<0.05) reduced
same,tumor burden/mouse,[4],significantly (p<0.05) reduced
same,CA tumor weights reduced compared to control mice,[5],15-30%
